These results are taken from US20150322137A1.

Where two headings read alike, the source gives them in different places. Where only a bound is given, the exact number is not on record here.

Experiment [1] concerns the target FP-TM(-)-His, His-Tag-added hMPV (JPS02-76) FP lacking the transmembrane region (amino acid residues 491 to 539 of FP) (human metapneumovirus, strain JPS02-76 (type B1)) (UniProt Q6WB98). The experiment is described as follows: SPR, Biacore T-200; antibody captured by anti-human IgG, FP-TM(-)-His as analyte.
Experiment [2] deals with F protein of human metapneumovirus strain JPS03-178 (type A2), on infectious virus (human metapneumovirus, strain JPS03-178 (type A2)). The experiment is described as follows: cell-based or functional assay.
Experiment [3] has as its target F protein of human metapneumovirus strain JPS03-180 (type A1), on infectious virus (human metapneumovirus, strain JPS03-180 (type A1)). The experiment in a line: cell-based or functional assay.
Experiment [4] concerns the target F protein of human metapneumovirus strain JPS02-76 (type B1), on infectious virus (human metapneumovirus, strain JPS02-76 (type B1)) (UniProt Q6WB98). The experiment in a line: cell-based or functional assay.
The target in experiment [5] is F protein of human metapneumovirus strain JPS05-21 (type B2), on infectious virus (human metapneumovirus, strain JPS05-21 (type B2)). The experiment is described as follows: cell-based or functional assay.
Experiment [6] addresses FP-TM(-)-His, His-Tag-added hMPV (JPS02-76) FP lacking the transmembrane region (amino acid residues 491 to 539 of FP) (human metapneumovirus, strain JPS02-76 (type B1)) (UniProt Q6WB98).

As a reminder, the Kd is the concentration at which binding is half-saturated. What is called koff is the first-order rate constant of dissociation. Low values mean a long-lived complex, high ones a short-lived complex. The term kon denotes the second-order rate constant of association. In the case of mouse anti-hMPV antibody mAb338, in experiment [1], the Kd came to 0.531 nM, the koff stood at 0.000228 s⁻¹ and the on-rate constant (kon) turned out to be 434000 M⁻¹ s⁻¹. Besides, in experiment [2], the IC50, neutralizing activity (hMPV infection of LLC-MK2 cells; GraphPad Prism 6) turned out to be 0.18 µg/mL; the IC60, neutralizing activity (hMPV infection of LLC-MK2 cells; GraphPad Prism 6) worked out at 0.239 µg/mL; the IC90, neutralizing activity (hMPV infection of LLC-MK2 cells; GraphPad Prism 6) is 0.856 µg/mL. Besides, in experiment [3], the IC50, neutralizing activity (hMPV infection of LLC-MK2 cells; GraphPad Prism 6) is 0.125 µg/mL; the IC60, neutralizing activity (hMPV infection of LLC-MK2 cells; GraphPad Prism 6) came out at 0.16 µg/mL; the IC90, neutralizing activity (hMPV infection of LLC-MK2 cells; GraphPad Prism 6) was determined as 0.498 µg/mL. Also, in experiment [4], the IC50, cell-to-cell spread inhibitory activity (LLC-MK2 cells stably expressing TMPRSS2) came out at 0.0215 µg/mL; the IC50, neutralizing activity (hMPV infection of LLC-MK2 cells; GraphPad Prism 6) was found to be 0.281 µg/mL; the IC60, neutralizing activity (hMPV infection of LLC-MK2 cells; GraphPad Prism 6) stood at 0.338 µg/mL; the IC90, cell-to-cell spread inhibitory activity (LLC-MK2 cells stably expressing TMPRSS2) was 0.0938 µg/mL. This substance also showed an IC90, neutralizing activity (hMPV infection of LLC-MK2 cells; GraphPad Prism 6) in experiment [4] of 0.772 µg/mL. Besides, in experiment [5], the IC50, neutralizing activity (hMPV infection of LLC-MK2 cells; GraphPad Prism 6) was determined as 0.221 µg/mL; the IC60, neutralizing activity (hMPV infection of LLC-MK2 cells; GraphPad Prism 6) was 0.261 µg/mL; the IC90, neutralizing activity (hMPV infection of LLC-MK2 cells; GraphPad Prism 6) turned out to be 0.547 µg/mL. This substance registered a Kd in experiment [6] of less than 10 nM.
